{"source": "paper PMC8964759", "about": "“Exploring a blue-light-sensing transcription factor to double the peak productivity of oil in Nannochloropsis oceanica”"}
{"target": "T1, MBP-NobZIP77 (Nannochloropsis oceanica, UniProt A0A8F2IEU3 1-466)", "T1 sequence": "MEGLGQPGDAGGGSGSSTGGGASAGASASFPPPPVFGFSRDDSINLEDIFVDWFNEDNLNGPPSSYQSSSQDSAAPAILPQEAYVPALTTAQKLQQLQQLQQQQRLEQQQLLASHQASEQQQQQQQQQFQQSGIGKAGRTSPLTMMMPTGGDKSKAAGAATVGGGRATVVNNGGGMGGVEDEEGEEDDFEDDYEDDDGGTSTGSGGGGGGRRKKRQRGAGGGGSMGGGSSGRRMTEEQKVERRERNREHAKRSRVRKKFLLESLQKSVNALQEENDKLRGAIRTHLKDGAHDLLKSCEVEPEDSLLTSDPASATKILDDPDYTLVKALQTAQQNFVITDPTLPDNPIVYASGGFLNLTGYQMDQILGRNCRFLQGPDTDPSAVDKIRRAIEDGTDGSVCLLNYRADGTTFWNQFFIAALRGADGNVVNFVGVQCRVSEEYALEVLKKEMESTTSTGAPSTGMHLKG", "experiment": "EMSA; LightShift Chemiluminescent EMSA kit binding buffer (composition, salt and pH not stated), 30 min; light series: 5 nM probe, 25 °C, 60 min, NobZIP77 1:2 dilutions from 24 mM (so in the source); 6% native PAGE at 4 °C", "conditions": "protein: recombinant; tags: MBP (pMAL-p4X); chain copies: 2; label: 5' biotin; blunt"}
{"binder": "g2171 (PAP) promoter probe (dsDNA) DNA 1: ACCGCTCCTTACGTGGTTAACATCACCGCTCCTTACGTGGTTAACATC DNA 2: GATGTTAACCACGTAAGGAGCGGTGATGTTAACCACGTAAGGAGCGGT", "binding result": "binds"}
{"binder": "g5641 (FAE) promoter probe (dsDNA) DNA 1: TGGATTGATGGACGTGGAAGCAGCTGGATTGATGGACGTGGAAGCAGC DNA 2: GCTGCTTCCACGTCCATCAATCCAGCTGCTTCCACGTCCATCAATCCA", "binding result": "binds"}
{"binder": "g9477 (actin) control probe (dsDNA) DNA 1: TTCGATAAATGGGGCCGATAAGTGAGGGAAGATGATTTGAGTAAAGTA DNA 2: TACTTTACTCAAATCATCTTCCCTCACTTATCGGCCCCATTTATCGAA", "binding result": "no binding"}
{"binder": "g4867 (hsp70) control probe (dsDNA) DNA 1: TGTGGGGCCTCAGATAAAGGTGCGGCACGTAGGGAGAGACATTG DNA 2: CAATGTCTCTCCCTACGTGCCGCACCTTTATCTGAGGCCCCACA", "binding result": "no binding"}
{"target": "T1, MBP-NobZIP77", "experiment": "EMSA; shift reduced by 100-fold unlabeled promoter DNA; LightShift Chemiluminescent EMSA kit binding buffer (composition, salt and pH not stated), 30 min; light series: 5 nM probe, 25 °C, 60 min, NobZIP77 1:2 dilutions from 24 mM (so in the source); 6% native PAGE at 4 °C", "conditions": "protein: recombinant; tags: MBP (pMAL-p4X); chain copies: 2; label: 5' biotin; blunt"}
{"binder": "g3857 (TAG-lipase) promoter probe (dsDNA) DNA 1: TGGGCTCGGACGCGACGCGGGCTTTGGGCTCGGACGCGACGCGGGCTT DNA 2: AAGCCCGCGTCGCGTCCGAGCCCAAAGCCCGCGTCGCGTCCGAGCCCA", "binding result": "binds"}
{"binder": "g10411 (lipase; also written g10041) promoter probe (dsDNA) DNA 1: TCCAACACGTCGGCCTCCCAAACGCAATTTTGAGGCATGGACGTGGAAAGGG DNA 2: CCCTTTCCACGTCCATGCCTCAAAATTGCGTTTGGGAGGCCGACGTGTTGGA", "binding result": "binds"}
